Target: TSLP, Q969D9
Test: Kd (SPR)

Row | Kd | Binder
1 | 242 nM | unnamed (protein) chain 1: QMQLVESGGGVVQPGRSLRLSCAASGFTFRTYGMHWVRQAPGKGLEWVAVIWYDGSNKHYADSVKGRFTITRDNSKNTLNLQMNSLRAEDTAVYYCARSPRYDEYYEAFDVWGQGTMVTVSS chain 2: SYVLTQPPSVSVAPGQTARITCGGNNLGSKSVHWYQQKPGQAPVLVVYDDSDRPSWIPERFSGSNSGNTATLTISRGEAGDEADYYCQVWDSSSDHVVFGGGTKLTVL
2 | 369 nM | unnamed (protein) chain 1: QMQLVESGGGVVQPGRSLRLSCAASGFTFRTYGMHWVRQAPGKGLEWVAVIWYDGSNKHYADSVKGRFTITRDNSKNTLNLQMNSLRAEDTAVYYCARSPRYDEYWEAFDVWGQGTMVTVSS chain 2: SYVLTQPPSVSVAPGQTARITCGGNNLGSKSVHWYQQKPGQAPVLVVYDDSDRPSWIPERFSGSNSGNTATLTISRGEAGDEADYYCQVWDSSSDHVVFGGGTKLTVL
3 | 99.6 nM | unnamed (protein) chain 1: QMQLVESGGGVVQPGRSLRLSCAASGFTFRTYGMHWVRQAPGKGLEWVAVIWYDGSNKHYADSVKGRFTITRDNSKNTLNLQMNSLRAEDTAVYYCARAPRYDDAYEAFDVWGQGTMVTVSS chain 2: SYVLTQPPSVSVAPGQTARITCGGNNLGSKSVHWYQQKPGQAPVLVVYDDSDRPSWIPERFSGSNSGNTATLTISRGEAGDEADYYCQVWDSSSDHVVFGGGTKLTVL
4 | 122 nM | unnamed (protein) chain 1: QMQLVESGGGVVQPGRSLRLSCAASGFTFRTYGMHWVRQAPGKGLEWVAVIWYDGSNKHYADSVKGRFTITRDNSKNTLNLQMNSLRAEDTAVYYCARSPRYDWYYEAFDVWGQGTMVTVSS chain 2: SYVLTQPPSVSVAPGQTARITCGGNNLGSKSVHWYQQKPGQAPVLVVYDDSDRPSWIPERFSGSNSGNTATLTISRGEAGDEADYYCQVWDSSSDHVVFGGGTKLTVL
5 | 337 nM | unnamed (protein) chain 1: QMQLVESGGGVVQPGRSLRLSCAASGFTFRTYGMHWVRQAPGKGLEWVAVIWYDGSNKHYADSVKGRFTITRDNSKNTLNLQMNSLRAEDTAVYYCARSPRYDYYYEAFDVWGQGTMVTVSS chain 2: SYVLTQPPSVSVAPGQTARITCGGNNLGSKSVHWYQQKPGQAPVLVVYDDSDRPSWIPERFSGSNSGNTATLTISRGEAGDEADYYCQVWDSSSDHVVFGGGTKLTVL
6 | 22.6 nM | unnamed (protein) chain 1: QMQLVESGGGVVQPGRSLRLSCAASGFTFRTYGMHWVRQAPGKGLEWVAVIWYDGSNKHYADSVKGRFTITRDNSKNTLNLQMNSLRAEDTAVYYCARAPRYYDYLEAFDVWGQGTMVTVSS chain 2: SYVLTQPPSVSVAPGQTARITCGGNNLGSKSVHWYQQKPGQAPVLVVYDDSDRPSWIPERFSGSNSGNTATLTISRGEAGDEADYYCQVWDSSSDHVVFGGGTKLTVL
7 | 138 nM | unnamed (protein) chain 1: QMQLVESGGGVVQPGRSLRLSCAASGFTFRTYGMHWVRQAPGKGLEWVAVIWYDGSNKHYADSVKGRFTITRDNSKNTLNLQMNSLRAEDTAVYYCARAPRYDYYYEAFDVWGQGTMVTVSS chain 2: SYVLTQPPSVSVAPGQTARITCGGNNLGSKSVHWYQQKPGQAPVLVVYDDSDRPSWIPERFSGSNSGNTATLTISRGEAGDEADYYCQVWDSSSDHVVFGGGTKLTVL
8 | 104 nM | unnamed (protein) chain 1: QMQLVESGGGVVQPGRSLRLSCAASGFTFRTYGMHWVRQAPGKGLEWVAVIWYDGSNKHYADSVKGRFTITRDNSKNTLNLQMNSLRAEDTAVYYCARAPRYDYEYEAFDVWGQGTMVTVSS chain 2: SYVLTQPPSVSVAPGQTARITCGGNNLGSKSVHWYQQKPGQAPVLVVYDDSDRPSWIPERFSGSNSGNTATLTISRGEAGDEADYYCQVWDSSSDHVVFGGGTKLTVL
9 | 23.6 nM | unnamed (protein) chain 1: QMQLVESGGGVVQPGRSLRLSCAASGFTFRTYGMHWVRQAPGKGLEWVAVIWYDGSNKHYADSVKGRFTITRDNSKNTLNLQMNSLRAEDTAVYYCARAPRYYWYWEAFDVWGQGTMVTVSS chain 2: SYVLTQPPSVSVAPGQTARITCGGNNLGSKSVHWYQQKPGQAPVLVVYDDSDRPSWIPERFSGSNSGNTATLTISRGEAGDEADYYCQVWDSSSDHVVFGGGTKLTVL
10 | 82.7 nM | unnamed (protein) chain 1: QMQLVESGGGVVQPGRSLRLSCAASGFTFRTYGMHWVRQAPGKGLEWVAVIWYDGSNKHYADSVKGRFTITRDNSKNTLNLQMNSLRAEDTAVYYCARAPRYDDDWEAFDVWGQGTMVTVSS chain 2: SYVLTQPPSVSVAPGQTARITCGGNNLGSKSVHWYQQKPGQAPVLVVYDDSDRPSWIPERFSGSNSGNTATLTISRGEAGDEADYYCQVWDSSSDHVVFGGGTKLTVL
11 | 116 nM | unnamed (protein) chain 1: QMQLVESGGGVVQPGRSLRLSCAASGFTFRTYGMHWVRQAPGKGLEWVAVIWYDGSNKHYADSVKGRFTITRDNSKNTLNLQMNSLRAEDTAVYYCARAPRYDFYYEAFDVWGQGTMVTVSS chain 2: SYVLTQPPSVSVAPGQTARITCGGNNLGSKSVHWYQQKPGQAPVLVVYDDSDRPSWIPERFSGSNSGNTATLTISRGEAGDEADYYCQVWDSSSDHVVFGGGTKLTVL
12 | 293 nM | unnamed (protein) chain 1: QMQLVESGGGVVQPGRSLRLSCAASGFTFRTYGMHWVRQAPGKGLEWVAVIWYDGSNKHYADSVKGRFTITRDNSKNTLNLQMNSLRAEDTAVYYCARAPRYDEYYDAFDVWGQGTMVTVSS chain 2: SYVLTQPPSVSVAPGQTARITCGGNNLGSKSVHWYQQKPGQAPVLVVYDDSDRPSWIPERFSGSNSGNTATLTISRGEAGDEADYYCQVWDSSSDHVVFGGGTKLTVL
13 | 128 nM | unnamed (protein) chain 1: QMQLVESGGGVVQPGRSLRLSCAASGFTFRTYGMHWVRQAPGKGLEWVAVIWYDGSNKHYADSVKGRFTITRDNSKNTLNLQMNSLRAEDTAVYYCARAPRYDWTYEAFDVWGQGTMVTVSS chain 2: SYVLTQPPSVSVAPGQTARITCGGNNLGSKSVHWYQQKPGQAPVLVVYDDSDRPSWIPERFSGSNSGNTATLTISRGEAGDEADYYCQVWDSSSDHVVFGGGTKLTVL
14 | 168 nM | unnamed (protein) chain 1: QMQLVESGGGVVQPGRSLRLSCAASGFTFRTYGMHWVRQAPGKGLEWVAVIWYDGSNKHYADSVKGRFTITRDNSKNTLNLQMNSLRAEDTAVYYCARAPRYDEHYEAFDVWGQGTMVTVSS chain 2: SYVLTQPPSVSVAPGQTARITCGGNNLGSKSVHWYQQKPGQAPVLVVYDDSDRPSWIPERFSGSNSGNTATLTISRGEAGDEADYYCQVWDSSSDHVVFGGGTKLTVL
15 | 84.9 nM | unnamed (protein) chain 1: QMQLVESGGGVVQPGRSLRLSCAASGFTFRTYGMHWVRQAPGKGLEWVAVIWYDGSNKHYADSVKGRFTITRDNSKNTLNLQMNSLRAEDTAVYYCARAPRYDEYWEAFDVWGQGTMVTVSS chain 2: SYVLTQPPSVSVAPGQTARITCGGNNLGSKSVHWYQQKPGQAPVLVVYDDSDRPSWIPERFSGSNSGNTATLTISRGEAGDEADYYCQVWDSSSDHVVFGGGTKLTVL
16 | 494 nM | unnamed (protein) chain 1: QMQLVESGGGVVQPGRSLRLSCAASGFTFRTYGMHWVRQAPGKGLEWVAVIWYDGSNKHYADSVKGRFTITRDNSKNTLNLQMNSLRAEDTAVYYCARAPRYDERWEAFDVWGQGTMVTVSS chain 2: SYVLTQPPSVSVAPGQTARITCGGNNLGSKSVHWYQQKPGQAPVLVVYDDSDRPSWIPERFSGSNSGNTATLTISRGEAGDEADYYCQVWDSSSDHVVFGGGTKLTVL
17 | 404 nM | unnamed (protein) chain 1: QMQLVESGGGVVQPGRSLRLSCAASGFTFRTYGMHWVRQAPGKGLEWVAVIWYDGSNKHYADSVKGRFTITRDNSKNTLNLQMNSLRAEDTAVYYCARAPRYDWAYEAFDVWGQGTMVTVSS chain 2: SYVLTQPPSVSVAPGQTARITCGGNNLGSKSVHWYQQKPGQAPVLVVYDDSDRPSWIPERFSGSNSGNTATLTISRGEAGDEADYYCQVWDSSSDHVVFGGGTKLTVL
18 | 29.2 nM | unnamed (protein) chain 1: QMQLVESGGGVVQPGRSLRLSCAASGFTFRTYGMHWVRQAPGKGLEWVAVIWYDGSNKHYADSVKGRFTITRDNSKNTLNLQMNSLRAEDTAVYYCARAPRYYEYWEAFDVWGQGTMVTVSS chain 2: SYVLTQPPSVSVAPGQTARITCGGNNLGSKSVHWYQQKPGQAPVLVVYDDSDRPSWIPERFSGSNSGNTATLTISRGEAGDEADYYCQVWDSSSDHVVFGGGTKLTVL
19 | 99.9 nM | unnamed (protein) chain 1: QMQLVESGGGVVQPGRSLRLSCAASGFTFRTYGMHWVRQAPGKGLEWVAVIWYDGSNKHYADSVKGRFTITRDNSKNTLNLQMNSLRAEDTAVYYCARAPRYDDYLEAFDVWGQGTMVTVSS chain 2: SYVLTQPPSVSVAPGQTARITCGGNNLGSKSVHWYQQKPGQAPVLVVYDDSDRPSWIPERFSGSNSGNTATLTISRGEAGDEADYYCQVWDSSSDHVVFGGGTKLTVL
